Reference: patent US20250263469A1 (HOSPITAL FOR SICK CHILDREN, published 2025)
Residue numbers refer to the chain shown, from its start.

B1: mAb 52 (antibody, V domains shown)
VH: QVQLVQSGAEVKKPGSSVKVSCKASGYTFTSYGISWVRQAPGQGLEWMGGIIPMFGTTNYAQKFQGRVTITADKSTSTAYMELSSLRSEDTAVYYCARDRGDTIDYWGQGTLVTVSS
VL: DIQMTQSPSSLSASVGDRVTITCRASQGISNNLNWYQQKPGKAPKLLIYAASSLESGVPSRFSGSGSGTDFTLTISSLQPEDFATYYCQQGNGFPLTFGPGTKVDIKR
B2: mAb 236 (antibody, V domains shown)
VH: QVQLVQSGAEVKKPGASVKVSCKASGGTFTSYGINWVRQAPGQGLEWMGWMNPNSGNTGYAQKFQGRVTMTRDTSTSTVYMELSSLRSEDTAVYYCASRGIQLLPRGMDVWGQGTTVTVSS
VL: not shown
B3: mAb 46 (antibody, V domains shown)
VH: EVQLLESGGGLVQPGRSLRLSCAASGFTFSSYAMSWVRQAPGKGLEWVSTIYSGGSTYYADSVKGRFTISRDNSKNTLYLQMNSLRAEDTAVYYCARGDSRDAFDIWGQGTMVTVSS
VL: DIQMTQSPSSLSASVGDRVTITCRASQSISSWLAWYQQKPGKAPKLLIYDASNLETGVPSRFSGSGSGTDFTLTISSLQPEDFATYYCQQSYSTPFTFGPGTKVDIKR
B4: mAb 82 (antibody, V domains shown)
VH: QVQLVQSGAEVKKPGASVKVSCKASGGSFSTSAFYWVRQAPGQGLEWMGWINPYTGGTNYAQKFQGRVTMTRDTSTSTVYMELSSLRSEDTAVYYCARSRALYGSGSYFDYWGQGTLVTVSS
VL: B3 VL with S28V, S31N, W32Y, Y92F, T94P, F96P, P100Q, K103R, V104L, D105E
B5: mAb 324 (antibody, V domains shown)
VH: QVQLVQSGAEVKKPGASVKVSCKASGGTFNNYGISWVRQAPGQGLEWMGWMNPNSGNTGYAQKFQGRVTMTRDTSTSTVYMELSSLRSEDTAVYYCARVGDYGDYIVSPFDLWGRGTLVTVSS
VL: B3 VL with S30T, S31T, W32Y, A34N, F96P, P100Q, D105E

What was measured:
[1] = molecular target: Spike of authentic SARS-CoV-2/SB2-P4-PB virus (SARS-CoV-2, UniProt P0DTC2 14-1273); experiment: cell-based or functional assay
[2] = molecular target: SARS-CoV-2 Spike N439K on pseudotyped virus (SARS-CoV-2, UniProt P0DTC2 14-1273); experiment: cell-based or functional assay
[3] = molecular target: SARS-CoV-2 Spike D614G on pseudotyped virus (SARS-CoV-2, UniProt P0DTC2 14-1273); experiment: cell-based or functional assay
[4] = molecular target: SARS-CoV-2 Spike L452R on pseudotyped virus (SARS-CoV-2, UniProt P0DTC2 14-1273); experiment: cell-based or functional assay
[5] = molecular target: SARS-CoV-2 Spike A475V on pseudotyped virus (SARS-CoV-2, UniProt P0DTC2 14-1273); experiment: cell-based or functional assay
[6] = molecular target: T1, SARS-CoV-2 receptor binding domain (RBD), wild type (BEI NR52309) (SARS-CoV-2, UniProt P0DTC2 319-541); experiment: BLI competition on His-tagged RBD, signal of the 2nd Ab after 1st Ab 236
[7] = molecular target: T1, SARS-CoV-2 receptor binding domain …; experiment: BLI competition on His-tagged RBD, signal of the 2nd Ab after 1st Ab 298
[8] = molecular target: T1, SARS-CoV-2 receptor binding domain …; experiment: BLI competition on His-tagged RBD, signal of the 2nd Ab after 1st Ab 324
[9] = molecular target: SARS-CoV-2 Spike V483A on pseudotyped virus (SARS-CoV-2, UniProt P0DTC2 14-1273); experiment: cell-based or functional assay

Row | Binder | IC50 SARS-CoV2/SB2-P4-PB (authentic virus), IgG [1] | Potency change vs WT PsV [2] | Potency change vs WT PsV [3] | IC50 (PsV neutralisation) [4] | Potency change vs WT PsV [5] | RBD binding [6] | RBD binding [7] | RBD binding [8] | Potency change vs WT PsV [4] | Potency change vs WT PsV [9]
1 | B1 | 6.2 µg/mL | 1.8 fold | 0.4 fold | > 100 µg/mL | 1.1 fold | 1.5 | 1.4 | 1.5 |  | 
2 | B2 | 5.5 µg/mL | 2.1 fold | 0.7 fold |  | 1.4 fold | 0.3 |  | 0.4 | -0.6 fold | 1.9 fold
3 | B3 | 19 µg/mL | 4.1 fold | 1.9 fold | > 100 µg/mL | 1.9 fold | 1.7 | 1.7 | 1.7 |  | 2 fold
4 | B4 |  | 1.1 fold |  |  | -5.7 fold |  | 0.5 | 0.8 | -8.1 fold | 0.2 fold
5 | B5 | 21 µg/mL | -1 fold | 2.6 fold |  | -0.6 fold | 0.3 |  | 0.4 | 0.8 fold | -0.4 fold
